Assay results: paper PMC11166264 (Cell reports, 2021)
Read-outs that look alike come from different tables or passages of the source. No end group written: not given here. *: point of attachment. Biotin = O=C1N[C@H]2[C@H](CS[C@H]2CCCCC(=O)*)N1

T1: HA-dmRanGAP (Drosophila melanogaster, UniProt Q9VIW3 1-596)
T1 sequence (looked up): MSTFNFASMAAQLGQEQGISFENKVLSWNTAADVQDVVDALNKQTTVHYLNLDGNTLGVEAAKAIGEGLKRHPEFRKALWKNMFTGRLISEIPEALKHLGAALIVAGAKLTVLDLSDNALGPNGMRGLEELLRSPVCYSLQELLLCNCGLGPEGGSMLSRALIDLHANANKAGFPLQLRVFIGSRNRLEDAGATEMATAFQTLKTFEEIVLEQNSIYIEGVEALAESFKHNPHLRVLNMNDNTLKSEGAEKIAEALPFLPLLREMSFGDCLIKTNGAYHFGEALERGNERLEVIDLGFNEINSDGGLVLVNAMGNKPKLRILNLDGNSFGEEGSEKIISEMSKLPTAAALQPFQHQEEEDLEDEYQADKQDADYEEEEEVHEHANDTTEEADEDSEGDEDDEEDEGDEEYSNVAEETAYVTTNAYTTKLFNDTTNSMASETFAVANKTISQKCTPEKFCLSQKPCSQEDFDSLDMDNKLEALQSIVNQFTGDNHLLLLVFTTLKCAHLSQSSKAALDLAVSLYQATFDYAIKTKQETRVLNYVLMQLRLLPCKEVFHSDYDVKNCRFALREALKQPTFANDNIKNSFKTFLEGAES


Columns and labels:
HA-dmRanGAP [1] = target: T1, HA-dmRanGAP; assay: pull-down
HA-dmRanGAP [2] = target: T1, HA-dmRanGAP; assay: pull-down; remark: listed apart in the source

| binding result (HA-dmRanGAP [1]) | binding result (HA-dmRanGAP [2]) | Binder |
| --- | --- | --- |
| binds | – | Biotin-VRPTTHEVIPPLPMTLPLLTLPQ [Biotinylated BP2 peptide (aa 2197-2219 of dmRanBP2)] |
| – | binds | dmRanBP2B-Frag (aa 2151-2250 of dmRanBP2B isoform) (domain or fragment, Drosophila melanogaster, UniProt A0A0B4K7J2 2151-2250, looked up) KPIEDSPVVGSVSQSTEANKPSQKNDGAAKSRGGESEVLDVGKTSSVRPTTHEVIPPLPMTLPLLTLPQPLAKPNDYQTPATILFKGSSLSRNNSSASEA |
